Laboratory results reported in patent US20050058645A1 (ZENYTH OPERATIONS, published 2005).

B1: mouse IL-13 (ligand, UniProt P20109 21-131, looked up)
chain: GPVPRSVSLPLTLKELIEELSNITQDQTPLCNGSMVWSVDLAAGGFCVALDSLTNISNCNAIYRTQRILHGLCNRKAPTTVSSLPDTKIEVAHFITKLLSYTKQLFRHGPF
B2: chimeric mouse IL-13Rα1-Fc (Fc fusion, UniProt O09030 26-340, looked up)
chain: ATEVQPPVTNLSVSVENLCTIIWTWSPPEGASPNCTLRYFSHFDDQQDKKIAPETHRKEELPLDEKICLQVGSQCSANESEKPSPLVKKCISPPEGDPESAVTELKCIWHNLSYMKCSWLPGRNTSPDTHYTLYYWYSSLEKSRQCENIYREGQHIACSFKLTKVEPSFEHQNVQIMVKDNAGKIRPSCKIVSLTSYVKPDPPHIKHLLLKNGALLVQWKNPQNFRSRCLTYEVEVNNTQTDRHNILEVEEDKCQNSESDRNMEGTSCFQLPGVLADAVYTVRVRVKTNKLCFDDNKLWSDWSEAQSIGKEQNST
notes: extracellular domain; Bought (R & D Systems); Preformed disulphide-bonded dimer; also called mIL-13Rα1-Fc; chimeric mouse receptor; not shown: Fc portion of human IgG
B3: CDR-grafted 1D9 Fab (Fab, V domains shown)
VH: EVQLVESGGGLVQPGGSLRLSCAASGFTFSGYGMSWVRQAPGKGLEWVATISGLGGYTYYPDSVKGRFTISRDNSKNTLYLQMNSLRAEDTAVYYCARRFYGDYVGAMDYWGQGTLVTVSS
VL: DIQMTQSPSSLSASVGDRVTITCRSSKSLLHSNGITYLYWYQQKPGKAPKLLIYQMSNLASGVPSRFSGSGSGTDFTLTISSLQPEDFATYYCAQNLELPFTFGQGTKVEIKR
B4: soluble hIL-13Rα1 (ECD) (receptor)
chain: GGGGAAPTETQPPVTNLSVSVENLCTVIWTWNPPEGASSNCSLWYFSHFGDKQDKKIAPETRRSIEVPLNERICLQVGSQCSTNESEKPSILVEKCISPPEGDPESAVTELQCIWHNLSYMKCSWLPGRNTSPDTNYTLYYWHRSLEKIHQCENIFREGQYFGCSFDLTKVKDSSFEQHSVQIMVKDNAGKIKPSFNIVPLTSRVKPDPPHIKNLSFHNDDLYVQWENPQNFISRCLFYEVEVNNSQTETHNVFYVQEAKCENPEFERNVENTSCFMVPGVLPDTLNTVRIRVKTNKLCYEDDKLWSNWSQEMSIGKKRNST
notes: also called immobilized hIL-13Rα1 (ECD)
B5: chimeric human IL-13Rα1-Fc (Fc fusion)
chain: GGGGAAPTETQPPVTNLSVSVENLCTVIWTWNPPEGASSNCSLWYFSHFGDKQDKKIAPETRRSIEVPLNERICLQVGSQCSTNESEKPSILVEKCISPPEGDPESAVTELQCIWHNLSYMKCSWLPGRNTSPDTNYTLYYWHRSLEKIHQCENIFREGQYFGCSFDLTKVKDSSFEQHSVQIMVKDNAGKIKPSFNIVPLTSRVKPDPPHIKNLSFHNDDLYVQWENPQNFISRCLFYEVEVNNSQTETHNVFYVQEAKCENPEFERNVENTSCFMVPGVLPDTLNTVRIRVKTNKLCYEDDKLWSNWSQEMSIGKKRNST
notes: Bought (R & D Systems); Extracellular domain of IL-13Rα1 fused to Fc of human IgG; Expressed as preformed disulphide-bonded dimer; also called hIL-13Rα1-Fc; chimeric human receptor; not shown: Fc portion of human IgG

Assays:
[1] = target: B2; test: Biosensor, immobilized mouse IL-13, chimeric receptor in solution
Description: (§1) A qualitative comparison of sensorgrams obtained in this study to data obtained previously with monomeric receptor protein, indicated a substantial improvement in binding kinetics. This improvement is attributed to a much slower off-rate for the dimeric form, compared with the monomeric form, of the receptor. To further quantify this interaction a complete dose-response analysis using both human and mouse chimeric receptor proteins and immobilized human and mouse IL-13 was undertaken.

[2] = target: B5; test: as above
Description: as §1

[3] = target: B1; test: Biosensor, immobilized IL-13
[4] = target: human IL-13 (human, UniProt P35225 35-146, limits assumed); test: Biosensor, immobilized IL-13
[5] = target: B5; test: ELISA: phage displayed Fab on plate bound hIL-13Rα1-Fc (ECD) (2.5 µg/ml), competed by soluble hIL-13Rα1 (ECD)
[6] = target: B4; test: competition ELISA (phage displayed Fab) and Biacore competition (soluble Fab)
Procedure: (§2) FIGS. 11A and 11B are graphical representations of binding affinities of the chimeric and CDR-grafted Fab fragment. […] (B) Biosensor competition assay of soluble 1D9 chimeric or CDR-grafted Fab binding to immobilized hIL-13Rα1 (ECD) competed by soluble hIL-13Rα1 (ECD). Fold-difference in affinity is calculated from (IC₅₀/IC₅₀).
The CDR-grafted Fab has similar affinity for IL-13Rα1 as the reference murine-human chimeric Fab.

[7] = target: B3; test: Biosensor competition assay: soluble CDR-grafted 1D9 Fab on immobilized hIL-13Rα1 (ECD), competed by titrated soluble hIL-13Rα1 (ECD)
Procedure: as §2

[8] = target: T1, mouse-human chimeric 1D9 Fab (human, UniProt P01857 1-103 = IgG part; P01834 1-107, limits assumed); test: Competition ELISA: phage displayed chimeric 1D9 Fab on plate bound hIL-13Rα1-Fc (ECD) (2.5 µg/ml), competed by titrated soluble hIL-13Rα1 (ECD)
[9] = target: B3; test: Competition ELISA: phage displayed Fabs on plate bound hIL-13Rα1-Fc (ECD), competed by soluble hIL-13Rα1 (ECD); ratio of the IC50 of the CDR-graft to that of the chimera
[10] = target: B3; test: Competition ELISA: phage displayed CDR-grafted 1D9 Fab on plate bound hIL-13Rα1-Fc (ECD) (2.5 µg/ml), competed by titrated soluble hIL-13Rα1 (ECD)
[11] = target: B3; test: Biosensor competition assay: soluble Fabs on immobilized hIL-13Rα1 (ECD), competed by soluble hIL-13Rα1 (ECD); ratio of the IC50 of the CDR-graft to that of the chimera
Procedure: as §2

[12] = target: T1, mouse-human chimeric 1D9 Fab; test: Biosensor competition assay: soluble chimeric 1D9 Fab on immobilized hIL-13Rα1 (ECD), competed by titrated soluble hIL-13Rα1 (ECD)
Procedure: as §2

[13] = target: T2, IL-13 (species not stated); test: Biosensor, immobilized IL-13
T2 construct: the 100-fold comparison

T1 sequence (VH, as listed by the source limits assumed, chain 1 of 2): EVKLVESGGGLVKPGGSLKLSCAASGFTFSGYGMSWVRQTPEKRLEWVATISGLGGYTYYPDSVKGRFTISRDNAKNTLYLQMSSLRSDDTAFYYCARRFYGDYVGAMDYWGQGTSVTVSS
T1 sequence (VL, as listed by the source limits assumed, chain 2 of 2): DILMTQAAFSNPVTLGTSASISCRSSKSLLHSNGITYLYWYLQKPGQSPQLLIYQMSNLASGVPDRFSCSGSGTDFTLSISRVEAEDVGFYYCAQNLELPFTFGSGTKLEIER
Sequence of human IL-13 (P35225 35-146 limits assumed): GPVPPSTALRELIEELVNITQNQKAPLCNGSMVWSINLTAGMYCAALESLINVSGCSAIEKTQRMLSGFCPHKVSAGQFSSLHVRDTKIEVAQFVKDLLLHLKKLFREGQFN

Binder: B1
Kd [1]: 0.536 nM | Kd [2]: 15.1 nM

Binder: B2
fold greater affinity compared with the chimeric human receptor [3]: ~10 fold | fold greater affinity compared with the chimeric human receptor [4]: ~10 fold

Binder: B3
binding result [5]: binds | binding result [6]: binds

Binder: B4
IC50 [7]: 9.61 nM | IC50 [8]: 0.045 µg/mL | fold difference in affinity (CDR-graft against Chimera, IC50/IC50) [9]: ~3 fold | IC50 [10]: 0.127 µg/mL | fold difference in affinity (CDR-graft against Chimera, IC50/IC50) [11]: ~1.5 fold | IC50 [12]: 6.66 nM

Binder: B5
fold increase in affinity compared with the monomeric form of the receptor [13]: 100 fold
